The source of these data is patent US20200231668A1 (INTRINSIC LIFESCIENCES, published 2020).

Assay [1] deals with T1, recombinant human erythroferrone (ERFE) (human, UniProt Q4G0M1 29-354).
T1 construct: Secreted from transfected HEK293F cells and purified from the supernatant; also called human ERFE; hERFE
T1 sequence: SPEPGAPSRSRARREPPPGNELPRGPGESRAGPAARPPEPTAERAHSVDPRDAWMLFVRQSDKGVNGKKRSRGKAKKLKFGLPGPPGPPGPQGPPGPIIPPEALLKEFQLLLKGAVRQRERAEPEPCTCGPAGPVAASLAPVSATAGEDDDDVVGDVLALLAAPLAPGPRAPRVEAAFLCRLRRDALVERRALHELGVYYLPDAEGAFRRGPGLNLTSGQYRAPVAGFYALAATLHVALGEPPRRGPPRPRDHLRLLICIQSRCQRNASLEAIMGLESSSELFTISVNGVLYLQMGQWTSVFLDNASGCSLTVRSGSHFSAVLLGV
Put plainly: sandwich ELISA, biotinylated detection antibody; coating antibodies 7H4, 17A5, 4C1.

Assay [2] deals with T1, recombinant human erythroferrone (ERFE). The assay can be described thus: sandwich ELISA, biotinylated detection antibody (also used as coating antibody); coating antibodies 7H4, 17A5, 4C1. In general terms: An ELISA detects its analyte on a solid surface through an enzyme-linked reagent.

B1: monoclonal antibody 9B12 (ATCC Accession Number PTA-123882) (antibody, mouse IgG1, kappa, V domains shown)
VH: QVQLQQSGPELVKPGASVRISCKASGYTFTSYYIHWVKQRPGQGLEWIAWIYPGNVNTEYNEKFKGKATLTADESSSTAYMQLSSLTSEDSAVFFCAREGITTNALDYWGQGTSVTVSS
VL: DIQMTQTTSSLSASLGDRVTISCRASQDISNYLNWYQQKPDGTVKLLIYYTSRLYSGVPSRFSGNGSGSDYSLTISNLEQEDIATYFCQQGHTLWTFGGGTKLEIKR
notes: Mouse IgG1 from hybridoma; Biotinylated when used as detection antibody
For the molecule B1, the binding result in assay [1] is given as “binds”.

B2: monoclonal antibody 17A5 (ATCC Accession Number PTA-123883) (antibody, mouse IgG1, kappa, V domains shown)
VH: QVQLQQPGSVLVRPGASVKLSCKASGYTFTSYWMHWAKQRPGQGLEWIGEIHPKSGDTNHNEKFKGKATLTVDTSSNTAYVDLSSLTSEDSAVYYCAREGITTVGFDLWGAGTTVTVSS
VL: QIVLTQSPAIMSASPGQKVTLTCSASSSVSYMNWVQQKSGTSPKRWIYDTSKLASGVPARFSGSGSGTSYSLTISSVEAEDAATYYCQQWSSHPYTFGGGTKLEIKR
notes: as for B1
Take B2: the binding result in assay [2] was “binds”.
